Three molecules from article PMC11833279, “Versatile Features of an Antibody Mimetic Peptide and Its Variants” (Journal of Peptide Science, 2025) can be followed below.

Non-standard residues stand in square brackets, D forms with d. *: point of attachment. Biotin = O=C1N[C@H]2[C@H](CS[C@H]2CCCCC(=O)*)N1; Ahx = NCCCCCC(=O)O; βAla = NCCC(=O)O

In test [1] the target is T1, HIV‐1 envelope glycoprotein gp120, strain HxBc2 (HIV-1 strain HxBc2, UniProt P04578 33-511). Description: ELISA; gp120 HxBc2 coated (1.4 μg/mL, 0.1 M phosphate buffer pH 7.4, overnight 4°C), blocked with Ficoll 400; biotinylated peptide in serial threefold dilutions from 400 nM, overnight 4°C; detected with anti-biotin peroxidase. To be noted: both partners purified.
The target in test [2] is T1, HIV‐1 envelope glycoprotein gp120, …. Description: cell-based or functional assay.

Usually EC50 stands for the concentration that produces a half-maximal response.

B1: H1H3s‐R28K (peptide)
chain: Ac-GYKFSNFVIHWG[βAla]G[Ahx]GK(Biotin)G[Ahx]SVGPYSWDDSPQDNYMDS-NH2
modifications: not fully specified; printed as Ac‐GYKFSNFVIHW‐GBGXG‐K*‐GX‐SVGPYSWDDSPQDNYMDS‐NH_2_
In the case of B1, the EC50 in test [1] was found to be 7.86 ± 1.35 nM.

B2: H1H3s‐allD (peptide)
chain: Ac-G[dY][dR][dF][dS][dN][dF][dV][dI][dH][dW]G[βAla]G[Ahx]G[dK](Biotin)G[Ahx][dS][dV]G[dP][dY][dS][dW][dD][dD][dS][dP][dQ][dD][dN][dY][dM][dD][dS]-NH2
SMILES: CC[C@@H](C)[C@@H](NC(=O)[C@H](NC(=O)[C@@H](Cc1ccccc1)NC(=O)[C@@H](CC(N)=O)NC(=O)[C@@H](CO)NC(=O)[C@@H](Cc1ccccc1)NC(=O)[C@@H](CCCNC(=N)N)NC(=O)[C@@H](Cc1ccc(O)cc1)NC(=O)CNC(C)=O)C(C)C)C(=O)N[C@H](Cc1c[nH]cn1)C(=O)N[C@H](Cc1c[nH]c2ccccc12)C(=O)NCC(=O)NCCC(=O)NCC(=O)NCCCCCC(=O)NCC(=O)N[C@H](CCCCNC(=O)CCCC[C@@H]1SC[C@@H]2NC(=O)N[C@@H]21)C(=O)NCC(=O)NCCCCCC(=O)N[C@H](CO)C(=O)N[C@@H](C(=O)NCC(=O)N1CCC[C@@H]1C(=O)N[C@H](Cc1ccc(O)cc1)C(=O)N[C@H](CO)C(=O)N[C@H](Cc1c[nH]c2ccccc12)C(=O)N[C@H](CC(=O)O)C(=O)N[C@H](CC(=O)O)C(=O)N[C@H](CO)C(=O)N1CCC[C@@H]1C(=O)N[C@H](CCC(N)=O)C(=O)N[C@H](CC(=O)O)C(=O)N[C@H](CC(N)=O)C(=O)N[C@H](Cc1ccc(O)cc1)C(=O)N[C@H](CCSC)C(=O)N[C@H](CC(=O)O)C(=O)N[C@H](CO)C(N)=O)C(C)C
With B2, in test [2], the “neutralisation of HIV-1 NL4-3 infection, SEAP reporter CEMx174 cells, IC50” value worked out at 1900 nM.

B3: H1H3s (peptide)
chain: Ac-GYRFSNFVIHWG[βAla]G[Ahx]GK(Biotin)G[Ahx]SVGPYSWDDSPQDNYMDS-NH2
modifications: not fully specified; printed as Ac‐GYRFSNFVIHW‐GBGXG‐K*‐GX‐SVGPYSWDDSPQDNYMDS‐NH_2_
For B3, the “neutralisation of HIV-1 NL4-3 infection, SEAP reporter CEMx174 cells, IC50” value in test [2] is 6300 nM. The half-maximal effective concentration (EC50) in test [1] stood at 6.46 ± 1.5 nM.
